The text below walks through data of article PMC8115823.

Assay [1] deals with RNA polymerase (Escherichia coli) (UniProt P0A7Z4). To be noted: cited from earlier work.
Assay [2] concerns the target DNA topoisomerase I (TopoI) of Streptococcus pneumoniae (S. pneumoniae). In words: SPR; TopoI immobilised on a new CM5 chip; RNAP holoenzyme 240 nM incubated with 1 x MIC seconeolitsine (SCN).
For assay [3] the target is unchanged. Description: SPR; TopoI immobilised on a new CM5 chip; RNAP holoenzyme 240 nM incubated with 1 x MIC rifampicin (Rif).
The target is the same in assay [4]. In words: SPR; TopoI immobilised on a new CM5 chip; RNAP holoenzyme 240 nM injected alone (no drug).
Assay [5] has the same target. In words: SPR; Biacore X100; about 3000 RU of TopoI immobilised on a CM5 chip by amine coupling; RNAP holoenzyme 7.5-240 nM flowed at 50 ul/min; 25 C; 20 mM Tris HCl pH 7.5, 100 mM NaCl, 10 mM MgCl2, 0.1 mM EDTA, 1 mM DTT, 0.005% Tween-20, 5% glycerol; regeneration with 1 M NaCl; kinetic fit; two independent assays.

DNA topoisomerase I, sequence (P06612 whole entry): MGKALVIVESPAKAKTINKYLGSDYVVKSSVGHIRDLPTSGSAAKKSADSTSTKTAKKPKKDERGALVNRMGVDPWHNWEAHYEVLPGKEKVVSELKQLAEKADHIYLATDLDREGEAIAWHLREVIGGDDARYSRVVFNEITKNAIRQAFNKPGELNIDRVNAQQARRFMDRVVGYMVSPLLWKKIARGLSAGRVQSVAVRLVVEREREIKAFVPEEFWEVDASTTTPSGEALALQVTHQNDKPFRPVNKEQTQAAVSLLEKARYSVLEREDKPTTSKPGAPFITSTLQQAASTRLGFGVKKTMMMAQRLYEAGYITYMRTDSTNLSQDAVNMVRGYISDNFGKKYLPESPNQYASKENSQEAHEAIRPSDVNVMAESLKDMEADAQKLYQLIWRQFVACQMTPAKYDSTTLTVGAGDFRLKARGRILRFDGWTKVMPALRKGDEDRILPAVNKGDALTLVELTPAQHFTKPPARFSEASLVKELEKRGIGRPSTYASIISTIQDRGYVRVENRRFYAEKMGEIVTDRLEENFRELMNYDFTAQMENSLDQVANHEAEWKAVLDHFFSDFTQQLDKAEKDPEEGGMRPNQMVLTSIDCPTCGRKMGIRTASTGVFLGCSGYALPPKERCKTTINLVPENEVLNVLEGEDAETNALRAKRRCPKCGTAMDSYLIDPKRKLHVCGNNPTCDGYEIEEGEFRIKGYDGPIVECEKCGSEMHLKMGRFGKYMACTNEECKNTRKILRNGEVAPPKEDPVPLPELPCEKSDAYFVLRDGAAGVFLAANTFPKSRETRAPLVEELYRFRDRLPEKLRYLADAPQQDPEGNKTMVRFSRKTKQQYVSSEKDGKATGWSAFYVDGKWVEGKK

As for “DNA topoisomerase I (from UniProt P06612)”, in assay [1], the Kd was 93 nM.
“RNA polymerase (RNAP) holoenzyme of Streptococcus pneumoniae (from UniProt P66708 1-311; A0A0H2ZQA1 1-369) (complex)” showed an SPR response with SCN in assay [2] of 40.9 RU. This substance also showed an SPR response with Rif in assay [3] of 122 RU. Also, the SPR response (no drug) in assay [4] came out at 173 RU. In addition, in assay [5], the Kd is 27 nM.
